Measured values from EP1244779B1.

What was measured:
Experiment in all cases: cell-based or functional assay
[1] = target: subtilisin 309 variant S99SD + S99A (B. lentus) (UniProt P29600)
[2] = target: subtilisin 309 variant A98AI+A98G+S99H+G100S+S101A (B. lentus) (UniProt P29600)
[3] = target: subtilisin 309 variant S99SD + S99A + S216SDP (B. lentus) (UniProt P29600)
[4] = target: subtilisin 309 variant S99SD + S99A + P131T (B. lentus) (UniProt P29600)
[5] = target: subtilisin 309 variant S99SD + S99A + P129PD (B. lentus) (UniProt P29600)
[6] = target: subtilisin 309 variant S99SD + S99A + S216SP (B. lentus) (UniProt P29600)
[7] = target: Savinase (subtilisin 309 from B. lentus) (B. lentus) (UniProt P29600)
[8] = target: subtilisin 309 variant S99SD + S99A + T143K (B. lentus) (UniProt P29600)
[9] = target: subtilisin 309 variant S99SD (B. lentus) (UniProt P29600)
[10] = target: subtilisin 309 variant S99SE (B. lentus) (UniProt P29600)
[11] = target: subtilisin 309 variant S99SN (B. lentus) (UniProt P29600)
[12] = target: subtilisin 309 variant S99SD + S99A + L217F + A228V + A230V (B. lentus) (UniProt P29600)
[13] = target: subtilisin 309 variant A98AT + Y167A + R170S + A194P (B. lentus) (UniProt P29600)
[14] = target: subtilisin 309 variant S99SR + S99T (B. lentus) (UniProt P29600)
[15] = target: subtilisin 309 variant S99SD + S99A + L217LP (B. lentus) (UniProt P29600)
[16] = target: subtilisin 309 variant S99SD + S99A + P129PR (B. lentus) (UniProt P29600)
[17] = target: subtilisin 309 variant S99SD + S99A + A133E (B. lentus) (UniProt P29600)
[18] = target: subtilisin 309 variant S99SD + S99A + L42LN (B. lentus) (UniProt P29600)
[19] = target: subtilisin 309 variant S99SD + M222S (B. lentus) (UniProt P29600)
[20] = target: subtilisin 309 variant S99SD + N76D + A194P + A230V (B. lentus) (UniProt P29600)
[21] = target: subtilisin 309 variant S99SQ + S99T (B. lentus) (UniProt P29600)

Residual Activity (%) [1]: 27.3%
Residual Activity (%) [2]: 22%
Residual Activity (%) [3]: 35%
Residual Activity (%) [4]: 35.6%
Residual Activity (%) [5]: 50%
Residual Activity (%) [6]: 29.2%
Residual Activity (%) [7]: < 5%
Residual Activity (%) [8]: 23%
Residual Activity (%) [9]: 25%
Residual Activity (%) [10]: 27%
Residual Activity (%) [11]: 19%
Residual Activity (%) [12]: 12%
Residual Activity (%) [13]: 88%
Residual Activity (%) [14]: 67.7%
Residual Activity (%) [15]: 97%
Residual Activity (%) [16]: 21%
Residual Activity (%) [17]: 39%
Residual Activity (%) [18]: 69.2%
Residual Activity (%) [19]: 25%
Residual Activity (%) [20]: 18.4%
Residual Activity (%) [21]: 25%
Substance: trypsin inhibitor type IV-0 (Ovo-inhibitor) (from UniProt P10184 69-517)
